“And” between values parts separate entries of the source, which are not always exact repeats. Identical values can stand only once. Each block holds one molecule with its values, some of them ahead of it.
B2: recombinant human soluble tissue factor (receptor, UniProt P13726 33-251, looked up)
chain: SGTTNTVAAYNLTWKSTNFKTILEWEPKPVNQVYTVQISTKSGDWKSKCFYTTDTECDLTDEIVKDVKQTYLARVFSYPAGNVESTGSAGEPLYENSPEFTPYLETNLGQPTIQSFEQVGTKVNVTVEDERTLVRRNNTFLSLRDVFGKDLIYTLYYWKSSSSGKKTAKTNTNEFLIDVDKGENYCFSVQAVIPSRTVNRKSTDSPVECMGQEKGEFRE
notes: extracellular domain; also called sTF; soluble TF

Experiments:
[1] = biological target: FVIIa/TF complex on a phospholipid surface (recombinant human TF vesicles with human FVIIa) (UniProt P13726)
[2] = biological target: T1, human factor VIIa (human, UniProt P08709 61-466); assay: sTF/FVIIa peptide hydrolysis assay (S2266), 2 nM FVIIa, no sTF
T1 construct: mature; also called FVIIa
T1 sequence (looked up): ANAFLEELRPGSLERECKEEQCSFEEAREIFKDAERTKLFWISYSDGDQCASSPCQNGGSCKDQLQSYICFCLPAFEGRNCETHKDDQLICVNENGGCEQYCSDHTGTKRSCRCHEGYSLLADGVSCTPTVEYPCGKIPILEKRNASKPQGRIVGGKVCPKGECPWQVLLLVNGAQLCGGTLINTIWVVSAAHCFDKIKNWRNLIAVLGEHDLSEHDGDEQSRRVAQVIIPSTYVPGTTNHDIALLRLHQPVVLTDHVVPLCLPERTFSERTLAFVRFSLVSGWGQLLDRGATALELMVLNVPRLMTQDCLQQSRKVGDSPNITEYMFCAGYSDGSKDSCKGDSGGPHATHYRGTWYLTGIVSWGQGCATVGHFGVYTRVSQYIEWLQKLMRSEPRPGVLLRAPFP

[3] = biological target: T2, FVIIa/TF complex preformed from sTF and FVIIai (human, UniProt P13726 33-251; P08709 61-466, limits assumed, active site inactivated by a chloromethylketone peptide, PPACK (FVIIai)); assay: microcalorimetry (isothermal titration calorimetry), model OneSites, CHO-expressed scFv(TF)3e10 titrated into the preformed sTF/FVIIai complex
T2 construct: extracellular domain;mature; Complex used in the microcalorimetry assay; It was made with a 2.3 fold molar excess of FVIIai over sTF; also called TF/FVIIa complex; sTF/FVIIa complex
Method: (§1) This assay is performed using a MicroCal VP-ITC instrument. […] Data analysis is performed using MicroCal Origin software. The data is fit to a single binding site.

[4] = biological target: T2, FVIIa/TF complex preformed from sTF and …; assay: microcalorimetry (ITC); scFv expressed in mammalian (CHO) cells; complex of sTF with FVIIai; microcalorimetry; TF/FVIIa complex; mammalian cell expressed scFv
Method: as §1

[5] = biological target: T3, sTF/FVIIa complex (soluble tissue factor with active human FVIIa) (human, UniProt P13726 33-251; P08709 61-466); assay: sTF/FVIIa peptide hydrolysis assay (3 nM sTF, 2 nM FVIIa); scFv titrated, 4-parameter fit of the rise in rate; bacterially expressed scFv; peptide hydrolysis assay with 3 nM sTF and 2 nM FVIIa present
T3 construct: extracellular domain;mature; The complex forms in the sTF/FVIIa peptide hydrolysis assay (3 nM sTF, 2 nM FVIIa); also called FVIIa/TF complex; VIIa/TF complex

[6] = biological target: FVIIa/TF complex on a phospholipid surface (recombinant human TF vesicles with human FVIIa) (human, UniProt P13726 33-295; P08709 61-466); assay: cell-based or functional assay
[7] = biological target: T2, FVIIa/TF complex preformed from sTF and …; assay: microcalorimetry (isothermal titration calorimetry), model OneSites, CHO-expressed scFv(TF)3e10 titrated into the preformed sTF/FVIIai complex; no unit printed in the fit box
Method: as §1

[8] = biological target: B2; assay: microcalorimetry (ITC); scFv expressed in mammalian (CHO) cells; free sTF; microcalorimetry; free sTF; mammalian cell expressed scFv
Method: as §1

[9] = biological target: T2, FVIIa/TF complex preformed from sTF and …; assay: microcalorimetry (ITC); scFv expressed in mammalian (CHO) cells
Method: as §1

[10] = biological target: B2; assay: microcalorimetry (isothermal titration calorimetry), model OneSites, CHO-expressed scFv(TF)3e10 titrated into sTF; no unit printed in the fit box
Method: as §1

[11] = biological target: B2; assay: BIAcore; BIAcore; free sTF, no FVIIa
[12] = biological target: T1, human factor VIIa; assay: sTF/FVIIa peptide hydrolysis assay (S2266), 2 nM FVIIa, sTF titrated, apparent KD from a 4-parameter fit; no antibody

Molecule: human factor X
- Km of FX for the VIIa/TF complex (FX activation assay) [1]: between 0.061 and 0.099 µM

- binding result [2]: no binding (tested: 800 nM)
- N [3]: 1.14
- Kd [4]: 33 nM
- Kd [5]: 65 nM
- IC50 for inhibition in the FX activation assay [6]: 0.44 nM
- ΔH [7]: -28600
- ΔS [7]: -60
- Kd [8]: 600 nM
- fold higher affinity for the TF/FVIIa complex as compared to free sTF [9]: ~20 fold
- ΔH [10]: -21800
- Kd [11]: 470 nM
B1: single chain anti-TF antibody scFv(TF)3e10 (scFv)
scFv: EMAQVNLRESGGTLVQPGGSLRLSCAASGFSFTDAWMSWVRQAPGKELEWVSSISGSGGSTYYAGSVKGRFTISRDNSKNTLYLQMNSLRAEDTAVYYCARVLSLTDYYWYGMDVWGQGTLVTVSAGGGGSGAPNFMLTQPHSVSASPGKTVTISCTRSSGSVASYYVQWYQQRPGSSPTTVIYEDNHRPSGVPDRFSGSIDTSSNSASLTISGLKTEDEADYYCQSYDSNNLVVFGGGTKLTVLGAAAGAPVPYPDPLEPRAA
notes: Monomer and dimer forms were separated by gel filtration

Molecule: B2
- Kd [12]: 13 nM
